Like-named read-outs stand apart in the source and are kept apart here.
Legend:
Test in all cases: ELISA
[1] = biological target: microtubules / purified porcine brain tubulin (porcine)
[2] = biological target: microtubules / purified porcine brain tubulin (porcine); remark: listed apart in the source
[3] = biological target: GST-PEX14-NTD (human) (UniProt O75381)
GST-PEX14-NTD (human), sequence (O75381 1-80): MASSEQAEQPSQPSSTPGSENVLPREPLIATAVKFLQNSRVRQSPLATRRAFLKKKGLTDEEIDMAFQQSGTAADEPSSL

monomeric His-tagged Kif5B kinesin motor domain (domain or fragment)
Kd [1]: 56.6 nM

GST-PEX14-NTD (from UniProt O75381 1-80) (domain or fragment)
Kd [2]: 0.7 to 2.3 nM | Kd [1]: 2.1 nM

His-PEX14-NTD (from UniProt O75381 1-80) (domain or fragment)
fold weaker affinity than GST-PEX14-NTD/MT [1]: > 100 fold

full-length His6-TEV-PEX5S (from UniProt P50542-2 1-602) (natural protein)
IC50 [3]: 1200 nM
